Measured values from US20240360228A1 (BIOLEGEND, published 2024).
Numbering of substitutions follows the chain as printed.

What was measured:
[1] = biological target: T1, human chemokine (C-C motif) receptor 8 (CCR8) (human, UniProt P51685 1-355); assay: flow cytometry blocking, human PBMC, CD3+ gate; competitor PE-AB8
T1 construct: also called hCCR8
Description: (§1) For blocking studies, 100 μL of the cell suspension were incubated with 10 μg purified isotype control, AB1, AB2, AB3, AB4, AB5, AB8, AB9, AB10, AB11, AB12, AB13, AB14, AB15, and Commercial ABI antibodies, or isotype control, as blocking agents.
(§2) After incubation with the blocking agent, the cells were incubated with 0.25 μg of the indicated PE-conjugated antibody plus anti-human CD4 APC or anti-human CD3 for another 15 minutes in the dark and then washed 2 times with Cell Staining Buffer, and acquired in a FACSCanto II flow cytometer (BD Biosciences); the data was analyzed using FCS Express (De Novo Software); MFI correspond to the CCR8+ CD4+ lymphocytes or CCR8+ CD3+ lymphocytes.
(§3) Percentage original MFI was calculated by dividing the MFI of samples blocked with AB1, AB2, AB3, AB4, AB5, AB6, AB7, AB8, AB9, AB10, AB11, AB12, AB13, AB14, AB15, and Commercial ABI antibodies, by the MFI of samples blocked with the corresponding isotype control. This value was subtracted from 100 to get a blocking percentage. The formula is shown below: […]

[2] = biological target: T1, human chemokine (C-C motif) receptor 8 …; assay: flow cytometry blocking, human PBMC, CD3+ gate; % cells stained by competitor PE-AB14 after block
Description: as §1, §2

[3] = biological target: T1, human chemokine (C-C motif) receptor 8 …; assay: flow cytometry blocking, human PBMC, CD3+ gate; % cells stained by competitor PE-AB7 after block
Description: as §1, §2

[4] = biological target: T1, human chemokine (C-C motif) receptor 8 …; assay: flow cytometry blocking, human PBMC, CD3+ gate; % cells stained by competitor PE-AB5 after block
Description: as §1, §2

[5] = biological target: T1, human chemokine (C-C motif) receptor 8 …; assay: flow cytometry blocking, human PBMC, CD3+ gate; competitor PE-AB12
Description: as §1, §2, §3

[6] = biological target: T1, human chemokine (C-C motif) receptor 8 …; assay: flow cytometry blocking, human PBMC, CD3+ gate; % cells stained by competitor PE-AB11 after block
Description: as §1, §2

[7] = biological target: T1, human chemokine (C-C motif) receptor 8 …; assay: flow cytometry blocking, human PBMC, CD3+ gate; % cells stained by competitor PE-AB12 after block
Description: as §1, §2

[8] = biological target: T1, human chemokine (C-C motif) receptor 8 …; assay: flow cytometry blocking, human PBMC, CD3+ gate; competitor PE-AB15
Description: as §1, §2, §3

[9] = biological target: T1, human chemokine (C-C motif) receptor 8 …; assay: flow cytometry blocking, human PBMC, CD3+ gate; competitor PE-AB5
Description: as §1, §2, §3

[10] = biological target: T1, human chemokine (C-C motif) receptor 8 …; assay: flow cytometry blocking, human PBMC, CD3+ gate; % cells stained by competitor PE-AB10 after block
Description: as §1, §2

[11] = biological target: T1, human chemokine (C-C motif) receptor 8 …; assay: flow cytometry blocking, human PBMC, CD3+ gate; % cells stained by competitor PE-L263G8 after block
Description: as §1, §2

[12] = biological target: T1, human chemokine (C-C motif) receptor 8 …; assay: flow cytometry blocking, human PBMC, CD3+ gate; % cells stained by competitor PE-AB15 after block
Description: as §1, §2

[13] = biological target: T1, human chemokine (C-C motif) receptor 8 …; assay: flow cytometry blocking, human PBMC, CD3+ gate; competitor PE-AB14
Description: as §1, §2, §3

[14] = biological target: T1, human chemokine (C-C motif) receptor 8 …; assay: flow cytometry blocking, human PBMC, CD3+ gate; competitor PE-AB6
Description: as §1, §2, §3

[15] = biological target: T1, human chemokine (C-C motif) receptor 8 …; assay: flow cytometry blocking, human PBMC, CD3+ gate; % cells stained by competitor PE-AB6 after block
Description: as §1, §2

[16] = biological target: T1, human chemokine (C-C motif) receptor 8 …; assay: flow cytometry blocking, human PBMC, CD3+ gate; competitor PE-433H
[17] = biological target: T1, human chemokine (C-C motif) receptor 8 …; assay: flow cytometry blocking, human PBMC, CD3+ gate; % cells stained by competitor PE-AB8 after block
Description: as §1, §2

[18] = biological target: T1, human chemokine (C-C motif) receptor 8 …; assay: flow cytometry blocking, human PBMC, CD3+ gate; % cells stained by competitor PE-AB13 after block
Description: as §1, §2

[19] = biological target: T1, human chemokine (C-C motif) receptor 8 …; assay: flow cytometry blocking, human PBMC, CD3+ gate; competitor PE-AB11
Description: as §1, §2, §3

[20] = biological target: T1, human chemokine (C-C motif) receptor 8 …; assay: flow cytometry blocking, human PBMC, CD3+ gate; competitor PE-L263G8
[21] = biological target: T1, human chemokine (C-C motif) receptor 8 …; assay: flow cytometry blocking, human PBMC, CD3+ gate; competitor PE-AB7
Description: as §1, §2, §3

[22] = biological target: T1, human chemokine (C-C motif) receptor 8 …; assay: flow cytometry blocking, human PBMC, CD3+ gate; competitor PE-AB13
Description: as §1, §2, §3

[23] = biological target: T1, human chemokine (C-C motif) receptor 8 …; assay: flow cytometry blocking, human PBMC, CD3+ gate; competitor PE-AB10
Description: as §1, §2, §3

[24] = biological target: T1, human chemokine (C-C motif) receptor 8 …; assay: flow cytometry blocking, human PBMC, CD3+ gate; % cells stained by competitor PE-433H after block
Description: as §1, §2

T1 sequence (P51685 whole entry): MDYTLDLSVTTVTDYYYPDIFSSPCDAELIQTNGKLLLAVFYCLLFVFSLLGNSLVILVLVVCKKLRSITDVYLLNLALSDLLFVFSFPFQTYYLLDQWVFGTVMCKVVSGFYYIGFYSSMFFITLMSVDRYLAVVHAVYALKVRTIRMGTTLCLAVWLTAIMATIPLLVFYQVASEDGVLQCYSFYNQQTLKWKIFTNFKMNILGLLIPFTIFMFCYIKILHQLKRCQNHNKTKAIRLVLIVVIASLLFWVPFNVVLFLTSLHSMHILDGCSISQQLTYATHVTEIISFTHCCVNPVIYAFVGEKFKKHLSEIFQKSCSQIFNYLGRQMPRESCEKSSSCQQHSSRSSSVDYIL

B1: anti-CCR8 monoclonal antibody AB5 (antibody, V domains shown)
VH: QVQLKESGPGLVQPSQTLSLTCTVSGFSLTSYHVSWVRQPPGKGLEWMGVIWTGGSTTYNSLLKSRLSISRDISKSQVFLKMNSLQTEDTATYYCARGGTVVKGGFAYWGQGTLVTVSS
VL: DIQMTQSPASLSASLEEIVTITCQASQDIGNRLSWYQQKPGKSPQLLIYGATSLADGVPSRFSGSRSGTQYSLKISRLQVEDIGIYYCLQAYSTPLTFGSGTKLEIK
notes: Hybridoma monoclonal; also called antibody 5; clone 5
% Blocking [1]: 0.12% | % Positive cells [2]: 6.47% | % Positive cells [3]: 9.75% | % Positive cells [4]: 1.25% | % Blocking [5]: -0.13% | % Positive cells [6]: 7.14% | % Positive cells [7]: 7.54% | % Blocking [8]: -2.58% | % Blocking [9]: 84.9% | % Positive cells [10]: 7.42% | % Positive cells [11]: 7.17% | % Positive cells [12]: 6.75% | % Blocking [13]: 9.26% | % Blocking [14]: 96.1% | % Positive cells [15]: 0.32% | % Blocking [16]: -0.99% | % Positive cells [17]: 8.45% | % Positive cells [18]: 7.01% | % Blocking [19]: -1.71% | % Blocking [20]: -22.1% | % Blocking [21]: -7.14% | % Blocking [22]: -5.41% | % Blocking [23]: -23.1% | % Positive cells [24]: 7.14%

B2: anti-CCR8 monoclonal antibody AB6 (antibody, V domains shown)
VH: B1 VH
VL: B1 VL
notes: also called antibody 6; clone 6
% Blocking [1]: 85.2% | % Positive cells [2]: 6.4% | % Positive cells [3]: 1.55% | % Positive cells [4]: 7.69% | % Blocking [5]: 5.71% | % Positive cells [6]: 7.67% | % Positive cells [7]: 7.1% | % Blocking [8]: 10% | % Blocking [9]: 7.24% | % Positive cells [10]: 5.61% | % Positive cells [11]: 6.58% | % Positive cells [12]: 5.92% | % Blocking [13]: 10.2% | % Blocking [14]: 12.4% | % Positive cells [15]: 7.25% | % Blocking [16]: 9.05% | % Positive cells [17]: 1.25% | % Positive cells [18]: 6.49% | % Blocking [19]: -9.26% | % Blocking [20]: -12.1% | % Blocking [21]: 83% | % Blocking [22]: 2.41% | % Blocking [23]: 6.97% | % Positive cells [24]: 6.43%

B3: anti-CCR8 monoclonal antibody AB7 (antibody, V domains shown)
VH: AVQLVESGGGLVQPKESLKISCAASGFTFSYAAMYWVRQTPGKGLEWVARIRTKPNNYATYYADSVKGRFTISRDDSKSMVYLQMDNLKSEDTAMYYCNIMGITRGYYFDYWGQGVMVTVSS
VL: DIQMTQSPSFLSASVGDRVTINCKASQNINRYLNWYQQQLGEAPKLLIYNANNLQTGIPSRFSGSRSGTDFTLTISSLQPEDVATYFCLQHNSWPWTFGGGTKLELK
notes: Hybridoma monoclonal; also called antibody 7; clone 7
% Blocking [1]: 92.9% | % Positive cells [2]: 0.26% | % Positive cells [3]: 1.47% | % Positive cells [4]: 8.68% | % Blocking [5]: 99.3% | % Positive cells [6]: 0.14% | % Positive cells [7]: 0.05% | % Blocking [8]: 87.1% | % Blocking [9]: -4.7% | % Positive cells [10]: 0.53% | % Positive cells [11]: 1.19% | % Positive cells [12]: 0.85% | % Blocking [13]: 96.3% | % Blocking [14]: -0.24% | % Positive cells [15]: 8.3% | % Blocking [16]: 87.5% | % Positive cells [17]: 0.6% | % Positive cells [18]: 0.96% | % Blocking [19]: 98% | % Blocking [20]: 79.7% | % Blocking [21]: 83.8% | % Blocking [22]: 85.6% | % Blocking [23]: 91.2% | % Positive cells [24]: 0.88%

B4: anti-CCR8 monoclonal antibody AB8 (antibody, V domains shown)
VH: B3 VH with T28I, Y31N, T40A, E46Q, N56K, A63I, S90T, I100T, I103L, G106A
VL: B3 VL with Q39K, N53S, R66G, S76R
notes: Hybridoma monoclonal; also called antibody 8; clone 8
% Blocking [1]: 18% | % Positive cells [2]: 0.11% | % Positive cells [3]: 8.51% | % Positive cells [4]: 8.95% | % Blocking [5]: 99.3% | % Positive cells [6]: 0.69% | % Positive cells [7]: 0.05% | % Blocking [8]: 98.9% | % Blocking [9]: -7.96% | % Positive cells [10]: 0.65% | % Positive cells [11]: 0.44% | % Positive cells [12]: 0.07% | % Blocking [13]: 98.5% | % Blocking [14]: 1.33% | % Positive cells [15]: 8.17% | % Blocking [16]: 88.1% | % Positive cells [17]: 6.94% | % Positive cells [18]: 0.26% | % Blocking [19]: 90.2% | % Blocking [20]: 92.5% | % Blocking [21]: 6.48% | % Blocking [22]: 96.1% | % Blocking [23]: 89.2% | % Positive cells [24]: 0.84%

B5: anti-CCR8 monoclonal antibody AB10 (antibody, V domains shown)
VH: EVQLVETGGGLVQPKGSLKLSCAVSGFTFKTNAMNWVRQAPGKGLEWVARIRSKSNKYATYYADSVKDRFTISRDDSQSMLYLQMNNLKTEDTAMYYCVRGSEMGYYYAMDYWGQGTSVTVSS
VL: DIVMTQAAPSVPVTPGESVSISCRSSKSLLHSNGNTYLYWFLQRPGQSPQLLIYRMSNLASGVPDRFSGSGSGTAFTLRISRVEAEDVGVYYCMQHLEYPFTFGGGTKLEIK
notes: Hybridoma monoclonal; also called antibody 10; clone 10
% Blocking [1]: 48.6% | % Positive cells [2]: 0.27% | % Positive cells [3]: 4.54% | % Positive cells [4]: 8.75% | % Blocking [5]: 93.9% | % Positive cells [6]: 0.28% | % Positive cells [7]: 0.46% | % Blocking [8]: 95.6% | % Blocking [9]: -5.55% | % Positive cells [10]: 0.15% | % Positive cells [11]: 0.57% | % Positive cells [12]: 0.29% | % Blocking [13]: 96.2% | % Blocking [14]: 6.04% | % Positive cells [15]: 7.78% | % Blocking [16]: 19.9% | % Positive cells [17]: 4.35% | % Positive cells [18]: 0.79% | % Blocking [19]: 96% | % Blocking [20]: 90.3% | % Blocking [21]: 50.1% | % Blocking [22]: 88.1% | % Blocking [23]: 97.5% | % Positive cells [24]: 5.66%
